# How the values were obtained:
# [1] = molecular target: CH505 TF chimeric SOSIP.III trimer (CH505TFchim.6R.SOSIP.664v4.1) (HIV-1 (CH505 gp120 with BG505 gp41, chimera)); assay: negative stain EM
# [2] = molecular target: BG505 SOSIP.664 gp140 trimer (HIV-1); assay: negative stain EM
# [3] = molecular target: CH505 transmitted/founder (TF) gp120 Env (HIV-1); assay: SPR, antibody captured, gp120 injected
# [4] = molecular target: CH505 transmitted/founder (TF) gp120 Env (HIV-1); assay: competition ELISA, competitor biotinylated CH240
# [5] = molecular target: CH505 transmitted/founder (TF) gp120 Env (HIV-1); assay: competition ELISA, competitor biotinylated CH241
# [6] = molecular target: B41 SOSIP.664 gp140 trimer (HIV-1); assay: negative stain EM
# [7] = molecular target: CH505 TF loop D mutant M8 Env (pseudovirus) (HIV-1); assay: cell-based or functional assay
# [8] = molecular target: CH505 TF loop D mutant M9 Env (pseudovirus) (HIV-1); assay: cell-based or functional assay
# [9] = molecular target: CH505 TF loop D mutant M7 Env (pseudovirus) (HIV-1); assay: cell-based or functional assay
# [10] = molecular target: CH505 TF loop D mutant M20 Env (pseudovirus) (HIV-1); assay: cell-based or functional assay
# [11] = molecular target: CH505 transmitted/founder (TF) gp120 Env (HIV-1); assay: competition ELISA, blocking of CH106 binding to CH505 TF gp120
# [12] = molecular target: CH505 transmitted/founder (TF) gp120 Env (HIV-1); assay: competition ELISA, blocking of sCD4 binding to CH505 TF gp120
substance,measurement,setting,value
CH103 Fab,binding ratio (CH103 to gp140) (CH103 per gp140),[1],1
same,stoichiometry (Fabs per trimer) (Fabs per trimer),[1],3
same,stoichiometry (Fabs per trimer) (Fabs per trimer),[2],3
CH103 lineage unmutated common ancestor (UCA) (antibody),Kd,[3],227 nM
same,kon,[3],37000 M⁻¹ s⁻¹
CH106 (antibody),IC50,[4],2.3 µg/mL
same,IC50,[5],14.3 µg/mL
CH235 Fab,stoichiometry (Fabs per trimer) (Fabs per trimer),[2],1
same,stoichiometry (Fabs per trimer) (Fabs per trimer),[6],2
CH235.9 (antibody),"neutralization IC50, TZM-bl pseudovirus assay",[7],0.66 µg/mL
CH235.9 Fab,stoichiometry (Fabs per trimer) (Fabs per trimer),[2],3
same,stoichiometry (Fabs per trimer) (Fabs per trimer),[6],3
CH235.9 N30T (antibody),"neutralization IC50, TZM-bl pseudovirus assay",[8],> 44 µg/mL
same,fold increase of the neutralization IC50 against CH235.9,[7],37 fold
same,"neutralization IC50, TZM-bl pseudovirus assay",[7],24.3 µg/mL
same,"neutralization IC50, TZM-bl pseudovirus assay",[9],> 44 µg/mL
same,"neutralization IC50, TZM-bl pseudovirus assay",[10],> 44 µg/mL
CH235.12 Fab,stoichiometry (Fabs per trimer) (Fabs per trimer),[2],3
same,stoichiometry (Fabs per trimer) (Fabs per trimer),[6],3
CH241 (antibody),Kd,[3],0.7 nM
same,koff,[3],0.00033 s⁻¹
same,IC50,[11],2.6 µg/mL
same,IC50,[12],1.5 µg/mL
